# Assay results taken from paper PMC11826918, “Generation of antagonistic biparatopic anti-CD30 antibody from an agonistic antibody by precise epitope determination and utilization of structural characteristics of CD30 molecule” (Antibody Therapeutics, 2025).
# Numbering of substitutions follows the chain as printed.
# B1: T104 cAb (antibody, V domains shown)
# VH: QIQLVQSGPELKKPGETVKISCKASGYTFTDYSMHWVKQAPGKGLKWMGWINTETGEPTYADDFKGRFAFSLETSASTAYLQINNLKNEDTATYFCTEGYVFDFWGQGTTLTVSS
# VL: DILLTQSPAILSVSPGERVSFSCRASRSIGTSIHWYQQRTNGSPRLLINYASESISGIPSRFSGSGSGTDFTLSINSVESEDIADYYCQQSNSWPLTFGAGTKLELK
# B2: T427 cAb (antibody, V domains shown)
# VH: QVQLQQPGTELVRPGASVKLSCKASGFSFTSYWMNWVKQRPGQGLEWIGMIHPSDSETRLNQKFKDRATLTVDKSSSTAYMQLSSPTSEDSAVYYCASEMDYYFAMDYWGQGTSVTVSS
# VL: DIVLTQSPTSLAVSLGQRATISCRASESVDSYGNSFMHWFQQKPGQPPKLLIYRASNLESGIPARFSGSGSWTDFTLTINPVEADDVATYYCQQSNEDPRTFGGGTKLEIK
# B3: T107 cAb (antibody, V domains shown)
# VH: QVQLQQSGPELVRPGVSVKISCKGSGYSFPDYPLHWVKQSHAKSLEWIGIILTYSGNTNYNQNFKGKATMTVDTSSNTAYLELARLTSEDSAIYYCATFYYGYDGAFDYWGQGTTLTVSS
# VL: DIVMTQSPSSLTVTAGEKVTMSCKSSQSLLNSGNQKNYLTWYQQKPGQPPKLLIHWASTRESGVPDRFTGSGSGTDFILTITSVQAEDLAVYYCQNDYTYPLTFGGGTKLELK
# B4: T405 cAb (antibody, V domains shown)
# VH: QVQLQQIGAELVRPGASVKLSCKASGYTFNNYWINWVKQRPGQGLEWIGNIYPSDSRSNYNQKFKDKATLTVDKPSSTAYMQLSSPTSEDSAVYYCTLGSYWGQGTLVTVSA
# VL: not shown
# B5: T105 cAb (antibody, V domains shown)
# VH: QVTLKESGPGILQPSQTLSLTCSFSGFSLSTSGMGVSWIRQPSGKDLEWLAHIYWDDDKRYNPSLKSRLTISKDTSSNQVFLKITSVDTADTATYYCARRADGLYFYLDVWGAGTTVTVSS
# VL: DIVMTQSQKFMSTSVGDRVSVTCKASQNVNTNVAWYQQKPGQSPEALIYSASYRYSGVPDRFTGSGSGTDFTLTISNVQSEDLAEYFCQQYNSYPLTFGSGTKLEIK
# B6: T6 cAb (antibody, V domains shown)
# VH: QVQLKESGPGLVTPSQSLSITCTVSGFSLSKYSIHWVRQPPGRGLEWLGMIWGVENTDYNSALKSRLSISKDNSKSQVFLKMNSLQSDDTAMYYCARKDLGLYGMNYWGQGISVTVSA
# VL: B5 VL with N30G, E45K, I48F, T63I, D70V, S93T, K107E
# B7: T426 cAb (antibody, V domains shown)
# VH: EVQLQQSGAELVKPGASVKLSCTASGFNVKDTYVHWVKQRPEQGLEWIGRIDPANSDTKYDSKFQGKATTSADTSSNTAYLQLNSLTSEDTAVYYCASGTDDYYWYFDVWGAGTTVTVSS
# VL: DIVLTQSPASLAVSLGQRATISCRASKSVSTPAHTYMHWYQQKPGQPPKLLIYLASNLESGVPARFSGSGSGTDFTLNIHPVEVEDAATYYCQHSRVLPYTFGGGTKLEIK
# B8: AC10 cAb (antibody, V domains shown)
# VH: QIQLQQSGPEVVKPGASVKISCKASGYTFTDYYITWVKQKPGQGLEWIGWIYPGSGNTKYNEKFKGKATLTVDTSSSTAFMQLSSLTSEDTAVYFCANYGNYWFAYWGQGTQVTVSA
# VL: DIVLTQSPASLAVSLGQRATISCKASQSVDFDGDSYMNWYQQKPGQPPKVLIYAASNLESGIPARFSGSGSGTDFTLNIHPVEEEDAATYYCQQSNEDPWTFGGGTKLEIK
# B9: T25 cAb (antibody, V domains shown)
# VH: QVTLKESGPGILQPSQTLSLTCSFSGFSLNTSGVGVGWIRQPSGKGLEWLAHIWWDDDERYNPVLKSRLTISKDTSSNQVFLKIANVDTADSATYYCVRSMVAWFPYWGRGTLVTVSA
# VL: DIVMSQSPSSLAVSVGEKFTVNCKSSQSLLYSSNQKNFLAWYQQKPGQSPKLLIYWASTRESGVPDRFIGSGSGTDFTLTISSVKAEDLAVYYCQQHYRYPWTFGGGTKLEIK
# Legend:
# [1] = biological target: T1, maltose-binding protein-fused CD30 (Homo sapiens, UniProt P28908-1); assay: SPR; Biacore T200; cAb or BpAb captured on anti-human Fc (CM5), CD30-MBP flowed at 0, 2 and 20 nM (0, 20 and 200 nM for T426), contact 90 s, dissociation 300 s; 'at a rough level'; details: both partners purified
# T1 construct: signal peptide in the construct; human CD30 extracellular domains, residues 1-336; also called CD30-MBP; source: Expi293, purified (Ni-NTA, Superdex200); not shown: MBP, C-terminal, kept
# CD30 fused to rabbit Fc = biological target: T2, CD30 fused to rabbit Fc (Homo sapiens, UniProt P28908-1); assay: ELISA; mutual competition: indicator cAb (0.75 μg/mL) captured on goat anti-human IgG Fc; CD30-rFc (50 ng/mL) pre-incubated overnight at 4 °C with competitor cAb (2.8 μg/mL); bound CD30-rFc probed with anti-rabbit IgG; details: one partner purified
# T2 construct: signal peptide in the construct; human CD30 whole extracellular domains, NP_001234.3 amino acids 1-383; also called CD30-rFc; source: HEK293T, transfected, harvested from the culture supernatant; not shown: hinge and Fc (rabbit IgG1), C-terminal, kept
# T2 sequence (P28908 19-383): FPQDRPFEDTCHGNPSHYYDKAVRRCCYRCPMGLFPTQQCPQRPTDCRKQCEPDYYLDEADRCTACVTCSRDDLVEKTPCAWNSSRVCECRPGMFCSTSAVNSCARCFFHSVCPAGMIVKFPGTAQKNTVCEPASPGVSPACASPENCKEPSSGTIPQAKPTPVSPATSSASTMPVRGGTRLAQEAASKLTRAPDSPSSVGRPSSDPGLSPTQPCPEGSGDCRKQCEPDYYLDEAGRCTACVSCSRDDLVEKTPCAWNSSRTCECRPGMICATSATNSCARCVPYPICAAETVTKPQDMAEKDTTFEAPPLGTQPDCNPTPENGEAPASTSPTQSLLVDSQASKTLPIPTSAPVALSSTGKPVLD
# T1 sequence (P28908 19-336): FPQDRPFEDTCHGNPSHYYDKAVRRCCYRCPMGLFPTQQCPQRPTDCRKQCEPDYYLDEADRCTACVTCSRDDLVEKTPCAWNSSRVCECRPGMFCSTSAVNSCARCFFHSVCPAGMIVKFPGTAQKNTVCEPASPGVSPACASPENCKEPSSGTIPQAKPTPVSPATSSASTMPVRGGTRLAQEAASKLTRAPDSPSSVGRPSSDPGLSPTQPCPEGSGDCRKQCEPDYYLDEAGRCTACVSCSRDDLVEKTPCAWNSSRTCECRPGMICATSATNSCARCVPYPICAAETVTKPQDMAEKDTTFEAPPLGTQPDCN
Binder,binding result [1],binding result (CD30 fused to rabbit Fc)
B1,binds,
B2,binds,binds
B3,binds,binds
B4,binds,
B5,binds,binds
B6,binds,
B7,,binds
B8,binds,binds
B9,binds,
